The RNAGym collection of RNA variant scans (doi:10.1073/pnas.2313332121)

B1: TPR t1 (parent)
chain: GACCAAUCUGCCCUCAGAGCUCGAGAACAUCUUCGGAUGCAGAGGAGGCAGGCUUCGGUGGCGCGAUAGCGCCAACGUCCUCAACCUCCAAUGCAUCCCACCACAUGAUGAUGCCUGAAGAGCCUUGGUUUUUUG

Variants of: B1
Experiment: polymerase ribozyme fitness, log enrichment relative to wild type (log ratio); higher = more active; in vitro selection for triplet polymerase activity
Procedure, shortened: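 A heterodimeric triplet polymerase ribozyme had each of its subunits mutagenized by PCR into a library, which was transcribed. One round of in vitro selection, done in triplicate, annealed each library with a biotinylated primer, its partner subunit and triplets, then incubated it frozen at −7 °C before gel excision of extended constructs, streptavidin-bead capture and RT-PCR. Fitness is the logarithm of genotype enrichment relative to wild-type enrichment, based on Illumina sequencing of inputs and outputs and inverse-variance-weighted replicate averages. A base-2 logarithm is used, and genotypes were kept only with ≥10 input reads and ≥1 read per output.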

Row | Variant | polymerase ribozyme fitness (log ratio)
1 | U55C G61A | -0.329
2 | G44C C70A U96A | -3.81
3 | G47A C115U | -2.3
4 | C12A C86A | -0.926
5 | G71U C76A | -5.51
6 | C13G G17A U55G | -5.5
7 | C12U G47A G113U | -3.45
8 | C3U U7C A18C G52A C94A | -5.04
9 | U55C C89U C115U | -3.71
10 | G48U U59C C86G | -2.19
11 | U9G C86A C114A | -0.649
12 | A43U G77C U78A C79U G120U U131C | -1.51
13 | C8U A84C G117A | -0.216
14 | G60A A90C C123U | 0.00477
15 | G47A G48A A118G | -2.29
16 | C3A C12U U54A G69U G77C | -3.81
17 | U7A C12U G113C | -2.14
18 | C11G G45U | -2.69
19 | C22G U38A C64U G77U G120A | -3.99
20 | G71U C82G | -1.17
21 | C79A U87C G113U | -4.71

Row | Variant | polymerase ribozyme fitness (log ratio)
22 | U9G G60A U92G | -2.36
23 | A41U A66C C70U C97U | -5.29
24 | C70U G77U U78C A95U C123G | 0.382
25 | G10C C12G C72A A105U | -3.93
26 | U14C C15A A46C | -5.53
27 | A18C C20U G36U C56G | -3.57
28 | G65C | -5.62
29 | C12A C62A C98A | -6.54
30 | G48A C56G | -0.92
31 | G19C C49G U92A U125G | -4.13
32 | G17C C64U | -4.22
33 | G42C G60C G120U | -2.03
34 | G10A G69U C79U C98A | -2
35 | G52A C62U G117U | -2.86
36 | G48A C62U C115U | -3.7
37 | C20G C123G U132G | -3.39
38 | U9G A74U | 0.26
39 | C62U U78C | -0.402
40 | U87A A121G | 1.17
41 | G63C G122A | -0.479
42 | A2U C13U A41G A43U C49U U92C G93C C115U U131G U132A | -4.38

Row | Variant | polymerase ribozyme fitness (log ratio)
43 | U38A G71U C80U A95G C124A | -0.159
44 | C8G C79G G117U | -1.37
45 | U54G G60U C115A | -3.58
46 | G48U C72U C85A U92C G93C C101U | -3.44
47 | A75U G128A | -1.64
48 | C104A C124U U130A | -3.43
49 | G47U C104A U133G | -4.19
50 | A18C G19A C40U C49U A50U C89U C124U | -5.69
51 | U106A C124A G128A | 0.53
52 | C13G C15U | -2.51
53 | C88A G110A | -1.49
54 | G10A A29U | -1.77
55 | G39C G135U | -0.712
56 | G51C A111G | -4.71
57 | G61U U78G C79U G122U | 0.33
58 | A2C C56G | -1.9
59 | A37G C49G A111U U126G | -6.22
60 | C13G C53A G69U C79A G120C | -0.403
61 | C3U C40U G117U | -3.25
62 | C72G U133G | 0.34
63 | A43U G93U | -2.7

Row | Variant | polymerase ribozyme fitness (log ratio)
64 | A5U G47A G113U | -3.72
65 | A6U C86U C89G | -1.63
66 | C15A C49A C86A A95U G110A C123A | -5.76
67 | A6U C8A G52U C53A C72A U92A C101A U130G | -5.85
68 | A41C G117C | -4.47
69 | G39A G69U C99A | -4.04
70 | A29G C76A G120U | -1.97
71 | C64U A121C | 1.93
72 | G39U A103C C114U A119U G120A U130A | -4.34
73 | C88U U106A C114G | -5.05
74 | C56G C89G | -3.34
75 | A43C A46G | -1.62
76 | C53U C85G | -2.01
77 | C56A A111U U129C | -4.47
78 | C12G G48A G93A | -1.44
79 | A108U | -4.97
80 | C8A U38A G42U G45A | -2.61
81 | G44U A111U | -4.9
82 | G61U G93A | 0.0678
83 | A26G G120A | -0.696
